# Where no end group is shown, it is not given here. [ ]: non-standard residue; d: D form.
# Target: A beta oligomers of the QIAD test (A beta aggregated under controlled conditions) (UniProt P05067 672-713, limits assumed)
# Assay: cell-based or functional assay
# Sequence of A beta oligomers of the QIAD test (A beta aggregated under controlled conditions) (P05067 672-713 limits assumed): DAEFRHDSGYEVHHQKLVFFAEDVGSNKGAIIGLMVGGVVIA
row,Binder,QIAD: reduction of oligomers in %
1,[dP][dT][dL][dH][dT][dH][dN][dR][dR][dR][dR][dR]-NH2 (N-terminus assumed; SMILES CC(C)C[C@@H](NC(=O)[C@H](NC(=O)[C@H]1CCCN1)[C@H](C)O)C(=O)N[C@H](Cc1c[nH]cn1)C(=O)N[C@@H](C(=O)N[C@H](Cc1c[nH]cn1)C(=O)N[C@H](CC(N)=O)C(=O)N[C@H](CCCNC(=N)N)C(=O)N[C@H](CCCNC(=N)N)C(=O)N[C@H](CCCNC(=N)N)C(=O)N[C@H](CCCNC(=N)N)C(=O)N[C@H](CCCNC(=N)N)C(N)=O)[C@H](C)O) [RD2 amidated],78%
2,[dR][dP][dR][dT][dR][dL][dH][dT][dH][dR][dN][dR][dR][dP][dR][dT][dR][dL][dH][dT][dH][dR][dN][dR]-NH2 (N-terminus assumed; SMILES CC(C)C[C@@H](NC(=O)[C@@H](CCCNC(=N)N)NC(=O)[C@H](NC(=O)[C@@H](CCCNC(=N)N)NC(=O)[C@H]1CCCN1C(=O)[C@H](N)CCCNC(=N)N)[C@H](C)O)C(=O)N[C@H](Cc1c[nH]cn1)C(=O)N[C@@H](C(=O)N[C@H](Cc1c[nH]cn1)C(=O)N[C@H](CCCNC(=N)N)C(=O)N[C@H](CC(N)=O)C(=O)N[C@H](CCCNC(=N)N)C(=O)N[C@H](CCCNC(=N)N)C(=O)N1CCC[C@@H]1C(=O)N[C@H](CCCNC(=N)N)C(=O)N[C@@H](C(=O)N[C@H](CCCNC(=N)N)C(=O)N[C@H](CC(C)C)C(=O)N[C@H](Cc1c[nH]cn1)C(=O)N[C@@H](C(=O)N[C@H](Cc1c[nH]cn1)C(=O)N[C@H](CCCNC(=N)N)C(=O)N[C@H](CC(N)=O)C(=O)N[C@H](CCCNC(=N)N)C(N)=O)[C@H](C)O)[C@H](C)O)[C@H](C)O) [D3D3 amidated],98%
3,[dR][dP][dR][dT][dR][dL][dH][dT][dH][dR][dN][dR]-NH2 (N-terminus assumed; SMILES CC(C)C[C@@H](NC(=O)[C@@H](CCCNC(=N)N)NC(=O)[C@H](NC(=O)[C@@H](CCCNC(=N)N)NC(=O)[C@H]1CCCN1C(=O)[C@H](N)CCCNC(=N)N)[C@H](C)O)C(=O)N[C@H](Cc1c[nH]cn1)C(=O)N[C@@H](C(=O)N[C@H](Cc1c[nH]cn1)C(=O)N[C@H](CCCNC(=N)N)C(=O)N[C@H](CC(N)=O)C(=O)N[C@H](CCCNC(=N)N)C(N)=O)[C@H](C)O) [D3 amidated],56%
4,[dR][dP][dR][dT][dR][dL][dH][dT][dH][dR][dN][dR][dP][dT][dL][dH][dT][dH][dN][dR][dR][dR][dR][dR]-NH2 (N-terminus assumed; SMILES CC(C)C[C@@H](NC(=O)[C@@H](CCCNC(=N)N)NC(=O)[C@H](NC(=O)[C@@H](CCCNC(=N)N)NC(=O)[C@H]1CCCN1C(=O)[C@H](N)CCCNC(=N)N)[C@H](C)O)C(=O)N[C@H](Cc1c[nH]cn1)C(=O)N[C@@H](C(=O)N[C@H](Cc1c[nH]cn1)C(=O)N[C@H](CCCNC(=N)N)C(=O)N[C@H](CC(N)=O)C(=O)N[C@H](CCCNC(=N)N)C(=O)N1CCC[C@@H]1C(=O)N[C@@H](C(=O)N[C@H](CC(C)C)C(=O)N[C@H](Cc1c[nH]cn1)C(=O)N[C@@H](C(=O)N[C@H](Cc1c[nH]cn1)C(=O)N[C@H](CC(N)=O)C(=O)N[C@H](CCCNC(=N)N)C(=O)N[C@H](CCCNC(=N)N)C(=O)N[C@H](CCCNC(=N)N)C(=O)N[C@H](CCCNC(=N)N)C(=O)N[C@H](CCCNC(=N)N)C(N)=O)[C@H](C)O)[C@H](C)O)[C@H](C)O) [D3RD2 amidated],88%

# Other lines, results leading:
row,QIAD: reduction of oligomers in %,Binder
1,100%,[dP][dT][dL][dH][dT][dH][dN][dR][dR][dR][dR][dR][dR][dP][dR][dT][dR][dL][dH][dT][dH][dR][dN][dR]-NH2 (N-terminus assumed; SMILES CC(C)C[C@@H](NC(=O)[C@@H](CCCNC(=N)N)NC(=O)[C@H](NC(=O)[C@@H](CCCNC(=N)N)NC(=O)[C@H]1CCCN1C(=O)[C@@H](CCCNC(=N)N)NC(=O)[C@@H](CCCNC(=N)N)NC(=O)[C@@H](CCCNC(=N)N)NC(=O)[C@@H](CCCNC(=N)N)NC(=O)[C@@H](CCCNC(=N)N)NC(=O)[C@@H](CCCNC(=N)N)NC(=O)[C@@H](CC(N)=O)NC(=O)[C@@H](Cc1c[nH]cn1)NC(=O)[C@H](NC(=O)[C@@H](Cc1c[nH]cn1)NC(=O)[C@@H](CC(C)C)NC(=O)[C@H](NC(=O)[C@H]1CCCN1)[C@H](C)O)[C@H](C)O)[C@H](C)O)C(=O)N[C@H](Cc1c[nH]cn1)C(=O)N[C@@H](C(=O)N[C@H](Cc1c[nH]cn1)C(=O)N[C@H](CCCNC(=N)N)C(=O)N[C@H](CC(N)=O)C(=O)N[C@H](CCCNC(=N)N)C(N)=O)[C@H](C)O) [RD2D3 amidated]
2,97%,[dP][dT][dL][dH][dT][dH][dN][dR][dR][dR][dR][dR][dP][dT][dL][dH][dT][dH][dN][dR][dR][dR][dR][dR]-NH2 (N-terminus assumed; SMILES CC(C)C[C@@H](NC(=O)[C@H](NC(=O)[C@H]1CCCN1C(=O)[C@@H](CCCNC(=N)N)NC(=O)[C@@H](CCCNC(=N)N)NC(=O)[C@@H](CCCNC(=N)N)NC(=O)[C@@H](CCCNC(=N)N)NC(=O)[C@@H](CCCNC(=N)N)NC(=O)[C@@H](CC(N)=O)NC(=O)[C@@H](Cc1c[nH]cn1)NC(=O)[C@H](NC(=O)[C@@H](Cc1c[nH]cn1)NC(=O)[C@@H](CC(C)C)NC(=O)[C@H](NC(=O)[C@H]1CCCN1)[C@H](C)O)[C@H](C)O)[C@H](C)O)C(=O)N[C@H](Cc1c[nH]cn1)C(=O)N[C@@H](C(=O)N[C@H](Cc1c[nH]cn1)C(=O)N[C@H](CC(N)=O)C(=O)N[C@H](CCCNC(=N)N)C(=O)N[C@H](CCCNC(=N)N)C(=O)N[C@H](CCCNC(=N)N)C(=O)N[C@H](CCCNC(=N)N)C(=O)N[C@H](CCCNC(=N)N)C(N)=O)[C@H](C)O) [RD2RD2 amidated]

# — patent publication US20160297852A1 (FORSCHUNGSZENTRUM JUELICH, published 2016)
